{"source": "patent US9580487B2", "about": "“Method of treating stomach or bowel-related disorders by administering glucagon-like-peptide-2 (GLP-2) analogues” (Zealand Pharma A/S, priority 2005, dated 2017)", "key": {"[1]": {"assay": "Tentative identification of major degradation products in stress test samples by LC-MS", "format": "physicochemical", "settings": "3 days at 40° C. in 0.5% H2O2", "description": "Analytical LC-MS analyses were performed on an Agilent Technologies 1100 HPLC instrument consisting of an on-line degasser, quaternary gradient pump, an auto sampler, a column oven, an UV detector. The HPLC instrument was interfaced with a Micromass LCT (ESI-TOF) mass spectrometer under control of Masslynx 3.5 software, from MicroMass, UK.\nMajor degradation products in the stress test samples were tentatively identified by the LC-MS method. Any isomers to the parent compounds and minor degradation products were not observed by this analytical LC-MS method."}, "male C57BL mice [2]": {"system": "male C57BL mice", "assay": "Dose-response effect on intestinal growth (SI mass, SI-Colon Sensitivity Index, colon and stomach mass)", "format": "in vivo", "settings": "5-405 nmol/kg s.c. b.i.d. for three days, vs vehicle", "description": "Values are means±SEM. *: P<0.05 relative to the equimolar dose of [Gly2]GLP-2 (SEQ ID NO:54).\nFIG. 2 is a set of graphs showing full dose-response data of four small intestine selective compounds (compound nos. 1846 (SEQ ID NO:34), 1855 (SEQ ID NO:43), 1848 (SEQ ID NO:36), 1858 (SEQ ID NO:46)) on the Small Intestine (SI)-to-Colon Sensitivity Index mice relative to the non-selective reference compound [Gly2]GLP-2 (SEQ ID NO:54). Compounds were administered by subcutaneous injection b.i.d. for three days in C57BL mice at the following doses: 0 (vehicle), 5, 15, 45, 135, 405 nmol/kg (n=6/dose group). Responses at each dose level were compared with responses obtained at the same dose level in pair-treated mice treated with the non-selective reference compound [Gly2]GLP-2 (SEQ ID NO:54). The SI-Colon Sensitivity Index was calculated as SI-mass relative to colon mass and the Sensitivity Index at each dose level was normalized to the response observed with the non-selective reference compound [Gly2]GLP-2 (SEQ ID NO:54). […] Values are means±SEM. *: P<0.05 relative to the equimolar dose of [Gly2]GLP-2.\nFIG. 4 is a set of graphs showing full dose-response data of three small intestine selective compounds (compound nos. 1857 (SEQ ID NO:45), 1820 (SEQ ID NO:10), and 1849 (SEQ ID NO:37)) on the Small Intestine (SI)-to-Colon Sensitivity Index mice relative to the non-selective reference compound [Gly2]GLP-2 (SEQ ID NO:54). Compounds were administered by subcutaneous injection b.i.d. for three days in C57BL mice at the following doses: 0 (vehicle), 5, 15, 45, 135, 405 nmol/kg (n=6/dose group). Responses at each dose level were compared with responses obtained at the same dose level in pair-treated mice treated with the non-selective reference compound [Gly2]GLP-2 (SEQ ID NO:54). The SI-Colon Sensitivity Index was calculated as SI-mass relative to colon mass and the Sensitivity Index at each dose level was normalized to the response observed with the non-selective reference compound [Gly2]GLP-2 (SEQ ID NO:54). […] Values are means±SEM. *: P<0.05 relative to the equimolar dose of [Gly2]GLP-2 (SEQ ID NO:54).\nCompounds were administered by subcutaneous injection b.i.d. for three days in C57BL mice at the following doses: 0 (vehicle), 5, 15, 45, 135, 405 nmol/kg (n=6/dose group). […] Values are means±SEM. *: P<0.05 relative to the vehicle.\nThe dose-response effect of 1820 (SEQ ID NO:10), 1855 (SEQ ID NO:43), ZP1846 (SEQ ID NO:34), 1858 (SEQ ID NO:46), 1849 (SEQ ID NO:37), 1848 (SEQ ID NO:36), and 1857 (SEQ ID NO:45) on small intestinal mass was determined in male C57BL mice. Individual groups (n=6) of mice were given 5, 15, 45, 135 or 405 nmol/kg of each compound, s.c, twice daily for three consecutive days. For comparison purposes other groups of animals were given either equimolar doses of [Gly2]GLP-2 (SEQ ID NO:54) or vehicle (phosphate buffered saline, pH 7.4) in the same dosing regimen. Twenty-four hours after the last dose of compound had been given the mice were sacrificed and the small intestine (from the pylorus to the cecum emptied and weighed to determine the effect on small intestinal mass."}, "male C57BL mice [3]": {"system": "male C57BL mice", "assay": "Screening for intestinal growth effects (small intestine and colon mass relative to body weight, small intestine-colon sensitivity index)", "format": "in vivo", "description": "The ability of the present compounds to stimulate intestinal growth was determined in male C57BL mice. Individual groups (n=6) of mice were given 30 nmol/kg of each compound, s.c, twice daily for ten consecutive days. For comparison purposes other groups of animals were given either an equimolar dose of [Gly2]GLP-2 (SEQ ID NO:54) or vehicle (phosphate buffered saline, pH 7.4) in the same dosing regimen. Twenty-four hours after the last dose of compound had been given the mice were sacrificed and the small intestine (from the pylorus to the cecum) and the colon (intestine distal to cecum) was emptied and weighed. To correct for slight difference in body weight (BW), the organ mass of the small intestine (SI) and colon were expressed relative to BW. The non-selective reference compound [Gly2]GLP-2 (SEQ ID NO:54) has been reported to stimulate gastrointestinal growth in both esophagus, stomach, small intestine and colon and to evaluate differences in growth pattern induced by compounds, the small intestine-colon sensitivity index of compound X was calculated as:\n(SI/Colon)X/(SI/Colon)[Gly2]GLP-2%\nCompounds with a small intestine-colon sensitivity greater than or equal to 1.05 were considered relatively selective for the small intestine (Table 15).\nCompounds with a small intestine-colon sensitivity smaller than or equal to 0.95 were considered relatively selective for the colon (Table 15)."}, "[4]": {"system": "colonic neoplasms in mice", "settings": "cited from earlier work"}, "[5]": {"assay": "Chemical stability testing: incubation in HCl, NaOH, H2O2 or NH4HCO3 at 40° C., remaining purity by RP-HPLC", "format": "physicochemical", "settings": "40° C., 2 mg/ml, relative to the purity at T=0", "description": "The GLP-2 analogues were dissolved in purified water and subsequently diluted in solutions containing HCl, NaOH, H2O2 or NH4HCO3. The solutions were incubated at 40° C. to produce hydrolysis, deamidation and oxidation products. The samples were analyzed by RP-HPLC and the percentage of remaining intact compound was determined as a measure for the relative stability. The major degradation products were tentatively identified by LC-MS.\nThe GLP-2 analogues tested and the reference Gly^2-GLP-2, ZP1559 (SEQ ID NO:54), were dissolved in water and subsequently diluted into solutions containing HCl, NaOH, H2O2 or NH4HCO3. The samples were incubated at 40° C. to generate hydrolysis, deamidation and oxidation products, respectively. The compounds were analysed by RP-HPLC for purity of the original main peak and by LC-MS for confirmation of the identity by mass of the main peak and major degradation products.\nThe GLP-2 analogues were first dissolved in MQW to a concentration of 4 mg/ml and then further diluted in the stress solutions at a 1:1 ratio (e.g. 125 μl plus 125 μl). The final concentrations were 2 mg/ml of the GLP-2 analogues for stress conditions with 0.1 M HCl, 0.01M NaOH, 0.1 M NH4HCO3 and 0.5% H2O2, respectively.\nThe solutions were incubated at 40° C. in the dark and then diluted in Eluent A to a concentration of 0.5 mg/ml (addition of 750 μl) prior to analyses by RP-HPLC and by LC-MS.\nThe RP-HPLC analyses were performed on an Agilent Series 1100 HPLC system under control of the ChemStation (Revision A.08.03 [847]) software from Agilent Technologies, Inc. The raw data and the results of the peak integration were deposited on the ChemStore C/S server by the use of Agilent Technologies Revision B01.03 software.\nThe results are shown in Table 9 as the compound purity measured by RP-HPLC after incubation under stress conditions. This purity is a measure for the remaining intact compound after incubation in stress solutions, relative to the purity measured a T=0."}}}
{"substance": "H-[Gly2]hGLP-2-OH [Compound 1559, reference compound]", "values": [{"measurement": "Intact product found by LC-MS after H2O2 stress", "setting": "[1]", "value": "No product intact"}, {"measurement": "Growth stimulation of small intestine, colon and stomach mass", "setting": "male C57BL mice [2]", "value": "produced dose-dependent growth stimulation in small intestine, colon and stomach"}, {"measurement": "Preferential growth of small intestine versus colon (small intestine-colon sensitivity)", "setting": "male C57BL mice [3]; 30 nmol/kg s.c. twice daily, ten days, relative to [Gly2]GLP-2", "value": "without preferential growth in small intestine or colon"}, {"measurement": "colon mass relative to body weight, % [Gly2]GLP-2", "setting": "male C57BL mice [3]; male C57BL mice, 30 nmol/kg s.c. twice daily for ten days", "value": "100 % [Gly2]GLP-2"}, {"measurement": "small intestine-colon sensitivity index, (SI/Colon)X/(SI/Colon)[Gly2]GLP-2 %", "setting": "male C57BL mice [3]; male C57BL mice, 30 nmol/kg s.c. twice daily for ten days, third value column", "value": "100 % [Gly2]GLP-2"}, {"measurement": "Growth of colonic neoplasms", "setting": "[4]", "value": "accelerate the growth of colonic neoplasms in mice"}, {"measurement": "Purity H2O2 0.5% 3 days", "setting": "[5]; RP-HPLC", "value": "<5", "unit": "%"}, {"measurement": "Purity HCl 0.1M 12 days", "setting": "[5]; RP-HPLC", "value": 57, "unit": "%"}, {"measurement": "Purity NH4HCO3 0.1M 6 days", "setting": "[5]; pH 8, RP-HPLC", "value": 66, "unit": "%"}]}
